Test results published in the Immune Epitope Database (IEDB).
Values belong to the sequence of their own block, whether it stands above or below them.

What was measured:
[1] = molecular target: HLA-A*03:01; assay: IEDB peptide-MHC binding, purified MHC/competitive/fluorescence; filed as Kd, often an IC50 or EC50 that approximates it; ≥ and ≤ were set here for values at or beyond the usual limits of such assays
[2] = molecular target: HLA-B*08:01; assay: IEDB peptide-MHC binding, purified MHC/direct/fluorescence; filed as Kd, often an IC50 or EC50 that approximates it; ≥ and ≤ were set here for values at or beyond the usual limits of such assays
[3] = molecular target: HLA-B*08:02; assay: as above
[4] = molecular target: HLA-A*02:01; assay: IEDB peptide-MHC binding, purified MHC/competitive/radioactivity; filed as Kd, often an IC50 or EC50 that approximates it; ≥ and ≤ were set here for values at or beyond the usual limits of such assays
[5] = molecular target: HLA-A*02:03; assay: as above
[6] = molecular target: HLA-A*02:17; assay: as above
[7] = molecular target: HLA-B*15:01; assay: as above; settings: source organism: Dengue virus 3 Sri Lanka/1266/2000
[8] = molecular target: HLA-B*08:01; assay: as above
[9] = molecular target: HLA-A*02:02; assay: as above
[10] = molecular target: HLA-A*02:06; assay: as above
[11] = molecular target: HLA-A*68:02; assay: as above
[12] = molecular target: HLA-B*18:01; assay: IEDB peptide-MHC binding, purified MHC/competitive/fluorescence; filed as Kd, often an IC50 or EC50 that approximates it; ≥ and ≤ were set here for values at or beyond the usual limits of such assays
[13] = molecular target: HLA-B*57:01; assay: as above
[14] = molecular target: HLA-A*26:01; assay: as above; settings: source organism: Homo sapiens
[15] = molecular target: HLA-B*15:17; assay: as above; settings: source organism: Homo sapiens
[16] = molecular target: HLA-B*39:01; assay: as above
[17] = molecular target: HLA-A*69:01; assay: as above; settings: source organism: Homo sapiens
[18] = molecular target: HLA-B*15:01; assay: as above
[19] = molecular target: HLA-B*27:03; assay: as above; settings: source organism: Homo sapiens
[20] = molecular target: HLA-B*46:01; assay: as above; settings: source organism: Homo sapiens
[21] = molecular target: HLA-B*51:01; assay: as above
[22] = molecular target: HLA-A*02:01; assay: IEDB peptide-MHC binding, purified MHC/direct/fluorescence; filed as Kd, often an IC50 or EC50 that approximates it; ≥ and ≤ were set here for values at or beyond the usual limits of such assays; settings: source organism: Homo sapiens
[23] = molecular target: HLA-B*57:01; assay: as above
[24] = molecular target: HLA-B*15:17; assay: as above
[25] = molecular target: HLA-B*58:01; assay: as above
[26] = molecular target: HLA-A*02:01; assay: IEDB peptide-MHC binding, purified MHC/competitive/fluorescence; filed as Kd, often an IC50 or EC50 that approximates it; ≥ and ≤ were set here for values at or beyond the usual limits of such assays
[27] = molecular target: HLA-A*32:01; assay: IEDB peptide-MHC binding, purified MHC/competitive/radioactivity; filed as Kd, often an IC50 or EC50 that approximates it; ≥ and ≤ were set here for values at or beyond the usual limits of such assays
[28] = molecular target: HLA-B*35:01; assay: as above; settings: source organism: Dengue virus 3 Singapore/8120/1995
[29] = molecular target: HLA-A*69:01; assay: IEDB peptide-MHC binding, purified MHC/direct/fluorescence; filed as Kd, often an IC50 or EC50 that approximates it; ≥ and ≤ were set here for values at or beyond the usual limits of such assays; settings: source organism: Mycobacterium tuberculosis
[30] = molecular target: HLA-B*07:02; assay: as above; settings: source organism: Mycobacterium tuberculosis str. Haarlem
[31] = molecular target: HLA-A*01:01; assay: IEDB peptide-MHC binding, purified MHC/competitive/radioactivity; filed as Kd, often an IC50 or EC50 that approximates it; ≥ and ≤ were set here for values at or beyond the usual limits of such assays; settings: source organism: Dengue virus 1 Brazil/97-11/1997
[32] = source organism: Mycobacterium tuberculosis C
[33] = source organism: Dengue virus 3 China/80-2/1980
[34] = source organism: Dengue virus 3 Sri Lanka/1266/2000
[35] = source organism: Dengue virus 1 Singapore/S275/1990
[36] = source organism: Dengue virus 3 Martinique/1243/1999
[37] = source organism: Dengue virus 1 Brazil/97-11/1997
[38] = source organism: Camelpox virus M-96
[39] = source organism: Orthonairovirus haemorrhagiae
[40] = source organism: dengue virus type 4
[41] = source organism: Dengue virus 2 Jamaica/1409/1983
[42] = source organism: Giardia lamblia ATCC 50803
[43] = source organism: Trypanosoma cruzi
[44] = source organism: Human herpesvirus 5 strain Towne
[45] = source organism: Dengue virus 4 Philippines/H241/1956
[46] = source organism: Mycobacterium tuberculosis str. Haarlem
[47] = source organism: Vibrio parahaemolyticus AQ3810

Sequence: RWFFRPLRK
Kd ([1]; source organism: Entamoeba dispar SAW760): 125 nM

Sequence: YLRRRQKAL
Kd [2, 32]: 10 nM
Kd [3, 32]: 1310 nM

Sequence: LMMMLPATLA
Kd [4, 33]: 13.5 nM
Kd [5, 33]: 17.5 nM
Kd [6, 33]: 2880 nM

Sequence: LMMILPAAL
Kd [7]: 13.6 nM
Kd [5, 34]: 15.3 nM
Kd [6, 34]: 78.4 nM
Kd [8, 34]: 18.1 nM

Kd ([9]; source organism: Homo sapiens): 33.2 nM
Kd ([4]; source organism: Homo sapiens): 2510 nM
Kd ([5]; source organism: Homo sapiens): 114 nM
Kd ([10]; source organism: Homo sapiens): ≥ 38800 nM
Kd ([11]; source organism: Homo sapiens): 3.18 nM
Sequence: ELADKVTKL

Sequence: KTMAMVLSIV
Kd [4, 35]: 26.4 nM
Kd [5, 35]: 1.18 nM
Kd [6, 35]: 2860 nM
Kd [10, 35]: 1.96 nM
Kd [11, 35]: 52.5 nM

Kd ([12]; source organism: Homo sapiens): ≥ 20000 nM
Kd ([13]; source organism: Homo sapiens): ≥ 20000 nM
Kd [14]: ≥ 20000 nM
Kd [15]: ≥ 20000 nM
Kd ([16]; source organism: Homo sapiens): ≥ 20000 nM
Kd [17]: ≥ 20000 nM
Kd ([18]; source organism: Homo sapiens): ≥ 20000 nM
Kd [19]: ≥ 20000 nM
Kd [20]: ≥ 20000 nM
Kd ([21]; source organism: Homo sapiens): ≥ 20000 nM
Kd [22]: 1.5 nM
Sequence: VLIRRCHYL

Sequence: VLLKTALLIV
Kd [5, 36]: 40.1 nM
Kd [6, 33]: 2490 nM
Kd [10, 36]: 37 nM

Kd ([1]; source organism: Escherichia coli K-12): 12.8 nM
Sequence: QLAFFVAGK

Sequence: TLLLLGLMIL
Kd [6, 33]: 2420 nM
Kd [8, 36]: 890 nM

Sequence: KLVMAFIAFL
Kd [4, 35]: 28.9 nM
Kd [6, 35]: 22.4 nM
Kd [10, 37]: 11.5 nM

Sequence: KLIEGTNIW
Kd [23, 38]: 70.5 nM
Kd [24, 38]: 67.9 nM
Kd [25, 38]: 7.7 nM

Sequence: MIRRRNQIL
Kd [26, 39]: ≥ 20000 nM
Kd [2, 39]: 3 nM
Kd [3, 39]: 843 nM

Sequence: KAYAQMWSL
Kd [23, 40]: 10.1 nM
Kd [24, 40]: 1.3 nM
Kd [27, 36]: 24.8 nM
Kd [10, 36]: 27.2 nM

Kd ([1]; source organism: Escherichia coli O157:H7 str. Sakai): ≥ 20000 nM
Sequence: FSFGDYFKH

Sequence: MLWMADVPL
Kd ([27]; source organism: Dengue virus 3 Singapore/8120/1995): 29.1 nM
Kd [4, 33]: 1.16 nM
Kd [28]: 658 nM
Kd [6, 33]: 2.72 nM

Sequence: FAGKTVWFV
Kd [6, 34]: 293 nM
Kd [10, 36]: 39.5 nM

Sequence: WMTTEDMLTV
Kd [4, 33]: 13.6 nM
Kd [5, 36]: 37.5 nM
Kd [6, 33]: 2240 nM
Kd [10, 36]: 8.59 nM

Sequence: DLMCHATFTM
Kd [4, 41]: 209 nM
Kd [6, 41]: ≥ 70400 nM

Sequence: LASSSYEQF
Kd [23, 42]: 188 nM
Kd [24, 42]: 21.8 nM
Kd [25, 42]: 36.5 nM

Sequence: DTMRPTTVV
Kd [9, 43]: ≥ 28900 nM
Kd [4, 43]: ≥ 83300 nM
Kd [5, 43]: 4630 nM
Kd [10, 43]: 3040 nM
Kd [11, 43]: 1.38 nM

Kd ([1]; source organism: Trichodesmium erythraeum IMS101): 73 nM
Sequence: RVDEIILFH

Sequence: LPLKMLNIPSINVH
Kd [12, 44]: ≥ 20000 nM
Kd [13, 44]: ≥ 20000 nM
Kd [16, 44]: ≥ 20000 nM
Kd [18, 44]: ≥ 20000 nM
Kd [21, 44]: ≥ 20000 nM

Sequence: FMMVLLIPEP
Kd [4, 33]: 93.1 nM
Kd [6, 33]: 5730 nM
Kd [10, 36]: 124 nM

Sequence: LLAGFMAYMI
Kd [4, 45]: 7.04 nM
Kd [6, 45]: 45.7 nM

Kd ([12]; source organism: Homo sapiens): ≥ 20000 nM
Kd ([13]; source organism: Homo sapiens): ≥ 20000 nM
Kd [14]: ≥ 20000 nM
Kd ([16]; source organism: Homo sapiens): ≥ 20000 nM
Kd [17]: ≥ 20000 nM
Kd ([18]; source organism: Homo sapiens): ≥ 20000 nM
Kd [19]: ≥ 20000 nM
Kd ([26]; source organism: Homo sapiens): ≥ 20000 nM
Kd [20]: ≥ 20000 nM
Kd ([21]; source organism: Homo sapiens): ≥ 20000 nM
Sequence: VSDFRKEFY

Sequence: LPAQLTATA
Kd [29]: 184 nM
Kd [30]: 441 nM
Kd [2, 46]: ≥ 20000 nM
Kd [3, 46]: ≥ 20000 nM

Sequence: GLLTVCYVL
Kd [6, 41]: 802 nM

Sequence: LLLLVAHYAI
Kd [4, 41]: 97.8 nM
Kd [6, 41]: 434 nM
Kd [10, 41]: 53.4 nM

Sequence: LTAAVLMLV
Kd [4, 35]: 1.14 nM
Kd [5, 37]: 11.8 nM
Kd [6, 35]: 561 nM
Kd [31]: 17700 nM
Kd [10, 37]: 10.6 nM
Kd [11, 37]: 11.3 nM

Sequence: YSKVKLLGL
Kd ([2]; source organism: Orthohantavirus dobravaense): 52.5 nM
Kd ([3]; source organism: Kurkino virus): 512 nM

Sequence: LLLLVAHYA
Kd [4, 41]: 51.9 nM
Kd [6, 41]: 7930 nM

Sequence: QTWKPDDVL
Kd [23, 47]: ≥ 20000 nM
Kd [24, 47]: 730 nM
Kd ([25]; source organism: Vibrio parahaemolyticus): ≥ 20000 nM
